Data taken from publication PMC8184850, “Cryo-EM structure of TFIIH/Rad4–Rad23–Rad33 in damaged DNA opening in nucleotide excision repair” (Nature Communications, 2021).

Tests used:
Details in all cases: both partners purified
Rad4–Rad23–Rad33 complex = biological target: T1, Rad4–Rad23–Rad33 complex (yeast, UniProt P14736 1-754; P32628 1-398; Q04231 1-177); experiment: cross-linking; XL-MS: TFIIH/Rad4–Rad23–Rad33 assembled on −24/+24 AAF-DNA, 1 mg/mL in 20 mM HEPES pH 7.6, 300 mM potassium acetate, 5% glycerol, 5 mM DTT; 6 mM DSBU on ice 2 h; MeroX, FDR <1%
T1 construct: Rad4 (XPC homologue), yeast; Rad23 (RAD23B homologue), yeast; Rad33 (CETN2 homologue), yeast; plasmid pETDuet-RAD33; also called Rad4–23–33; yeast homologue of XPC–RAD23B–CETN2; copies: + +
T1 sequence 1: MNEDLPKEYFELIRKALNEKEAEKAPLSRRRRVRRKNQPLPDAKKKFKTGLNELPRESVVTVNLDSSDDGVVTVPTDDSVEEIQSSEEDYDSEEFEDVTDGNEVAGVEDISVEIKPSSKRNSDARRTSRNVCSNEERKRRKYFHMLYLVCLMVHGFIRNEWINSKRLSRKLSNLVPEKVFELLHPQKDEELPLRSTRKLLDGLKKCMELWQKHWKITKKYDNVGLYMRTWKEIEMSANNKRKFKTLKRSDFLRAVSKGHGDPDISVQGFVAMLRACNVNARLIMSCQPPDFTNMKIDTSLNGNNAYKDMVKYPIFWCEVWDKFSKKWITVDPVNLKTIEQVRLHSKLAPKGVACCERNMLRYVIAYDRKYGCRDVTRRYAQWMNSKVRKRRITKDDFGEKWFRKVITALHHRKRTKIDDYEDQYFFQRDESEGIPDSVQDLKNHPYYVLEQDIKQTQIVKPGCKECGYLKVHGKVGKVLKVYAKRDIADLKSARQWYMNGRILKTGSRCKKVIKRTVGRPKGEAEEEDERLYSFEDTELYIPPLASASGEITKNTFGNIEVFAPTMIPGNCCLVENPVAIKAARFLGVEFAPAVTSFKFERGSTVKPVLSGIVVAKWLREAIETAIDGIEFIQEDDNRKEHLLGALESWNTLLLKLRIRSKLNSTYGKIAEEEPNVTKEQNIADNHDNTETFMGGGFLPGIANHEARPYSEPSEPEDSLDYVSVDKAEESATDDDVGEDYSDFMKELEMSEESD
T1 sequence 2: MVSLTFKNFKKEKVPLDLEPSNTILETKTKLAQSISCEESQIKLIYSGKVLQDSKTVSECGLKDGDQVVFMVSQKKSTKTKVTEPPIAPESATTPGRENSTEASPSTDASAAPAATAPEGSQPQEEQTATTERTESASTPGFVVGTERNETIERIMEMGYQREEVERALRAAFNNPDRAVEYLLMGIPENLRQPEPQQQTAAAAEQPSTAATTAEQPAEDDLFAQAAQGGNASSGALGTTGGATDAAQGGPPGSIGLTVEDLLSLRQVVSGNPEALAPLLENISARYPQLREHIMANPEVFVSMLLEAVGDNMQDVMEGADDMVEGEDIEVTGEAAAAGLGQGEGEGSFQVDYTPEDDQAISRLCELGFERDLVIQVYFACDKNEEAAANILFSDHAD
T1 sequence 3: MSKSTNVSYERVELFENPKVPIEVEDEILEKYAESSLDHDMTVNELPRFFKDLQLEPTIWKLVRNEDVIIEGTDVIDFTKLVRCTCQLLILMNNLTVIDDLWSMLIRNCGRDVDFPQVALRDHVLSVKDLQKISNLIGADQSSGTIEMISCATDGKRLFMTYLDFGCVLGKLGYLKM

Rad3 = biological target: T2, Rad3 (yeast, UniProt P06839 1-778); experiment: cryo-EM structure; coreTFIIH and Rad4–Rad23–Rad33 on −24*/+24 AAF-DNA with ATP, glycerol gradient with glutaraldehyde; Map 1 3.86 Å (TFIIH), Map 2 9.2 Å, Map 3 7.9 Å; Rad4, Rad33 and the Tfb1 PH domain placed by rigid-body docking of known structures or homology models
T2 construct: Rad3 (XPD homologue), subunit of yeast coreTFIIH; Stood in the assays as part of coreTFIIH; also called yeast homologue of XPD; source: purified from yeast as a subunit of coreTFIIH
T2 sequence (looked up): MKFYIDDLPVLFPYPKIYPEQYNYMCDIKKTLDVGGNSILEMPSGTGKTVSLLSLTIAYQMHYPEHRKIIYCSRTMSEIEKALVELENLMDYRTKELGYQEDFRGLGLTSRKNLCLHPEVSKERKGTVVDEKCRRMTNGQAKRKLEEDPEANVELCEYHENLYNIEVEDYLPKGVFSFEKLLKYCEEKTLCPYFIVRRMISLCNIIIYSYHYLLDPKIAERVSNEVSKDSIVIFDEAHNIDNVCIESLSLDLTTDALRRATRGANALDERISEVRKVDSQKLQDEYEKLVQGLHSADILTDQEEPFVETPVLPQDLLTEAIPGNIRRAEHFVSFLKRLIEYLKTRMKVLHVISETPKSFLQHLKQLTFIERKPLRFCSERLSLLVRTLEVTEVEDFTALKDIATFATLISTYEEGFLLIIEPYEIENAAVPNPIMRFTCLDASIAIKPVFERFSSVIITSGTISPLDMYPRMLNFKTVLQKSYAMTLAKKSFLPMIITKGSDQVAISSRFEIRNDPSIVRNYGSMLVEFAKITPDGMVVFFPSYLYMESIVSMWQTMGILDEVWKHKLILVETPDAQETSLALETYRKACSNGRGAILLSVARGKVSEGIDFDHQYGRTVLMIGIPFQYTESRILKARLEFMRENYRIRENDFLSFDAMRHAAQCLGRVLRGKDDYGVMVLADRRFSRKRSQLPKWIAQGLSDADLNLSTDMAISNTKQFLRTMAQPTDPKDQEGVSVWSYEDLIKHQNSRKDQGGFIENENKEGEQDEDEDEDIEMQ

Rad4 = biological target: T3, Rad4 (yeast, UniProt P14736 1-754); experiment: as above
T3 construct: Rad4 (XPC homologue), yeast; Stood in the assays as part of Rad4–Rad23–Rad33; written alone for the contacts of the subunit; also called yeast homologue of XPC; source: Hi5 insect cells, co-expressed with Rad23, purified as the Rad4–Rad23 complex
T3 sequence (looked up): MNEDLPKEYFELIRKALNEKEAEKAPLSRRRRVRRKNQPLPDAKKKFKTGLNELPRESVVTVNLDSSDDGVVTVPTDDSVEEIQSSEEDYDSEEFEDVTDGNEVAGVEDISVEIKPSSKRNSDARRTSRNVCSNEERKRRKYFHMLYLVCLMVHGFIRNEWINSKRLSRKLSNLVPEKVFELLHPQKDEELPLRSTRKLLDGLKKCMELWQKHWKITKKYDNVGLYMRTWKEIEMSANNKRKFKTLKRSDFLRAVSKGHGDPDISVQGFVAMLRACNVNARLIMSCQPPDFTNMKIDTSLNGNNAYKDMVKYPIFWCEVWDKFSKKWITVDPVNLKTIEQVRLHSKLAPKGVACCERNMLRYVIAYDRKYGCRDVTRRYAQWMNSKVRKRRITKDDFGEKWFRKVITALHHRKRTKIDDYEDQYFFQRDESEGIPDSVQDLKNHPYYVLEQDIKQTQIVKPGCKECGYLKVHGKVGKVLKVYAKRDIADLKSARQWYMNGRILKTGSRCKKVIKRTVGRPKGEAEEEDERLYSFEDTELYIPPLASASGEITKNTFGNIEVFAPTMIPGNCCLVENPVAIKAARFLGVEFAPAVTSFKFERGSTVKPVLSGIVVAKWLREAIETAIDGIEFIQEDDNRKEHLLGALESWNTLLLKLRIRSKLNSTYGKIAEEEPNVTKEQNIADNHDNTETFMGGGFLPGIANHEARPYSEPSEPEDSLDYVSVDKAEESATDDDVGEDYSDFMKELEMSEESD

binding result (Rad4–Rad23–Rad33 complex): binds | binding result (Rad3): binds | binding result (Rad4): binds
B1: Tfb1 (natural protein, yeast, UniProt P32776 1-642, looked up)
chain: MSHSGAAIFEKVSGIIAINEDVSPAELTWRSTDGDKVHTVVLSTIDKLQATPASSEKMMLRLIGKVDESKKRKDNEGNEVVPKPQRHMFSFNNRTVMDNIKMTLQQIISRYKDADIYEEKRRREESAQHTETPMSSSSVTAGTPTPHLDTPQLNNGAPLINTAKLDDSLSKEKLLTNLKLQQSLLKGNKVLMKVFQETVINAGLPPSEFWSTRIPLLRAFALSTSQKVGPYNVLSTIKPVASSENKVNVNLSREKILNIFENYPIVKKAYTDNVPKNFKEPEFWARFFSSKLFRKLRGEKIMQNDRGDVIIDRYLTLDQEFDRKDDDMLLHPVKKIIDLDGNIQDDPVVRGNRPDFTMQPGVDINGNSDGTVDILKGMNRLSEKMIMALKNEYSRTNLQNKSNITNDEEDEDNDERNELKIDDLNESYKTNYAIIHLKRNAHEKTTDNDAKSSADSIKNADLKVSNQQMLQQLSLVMDNLINKLDLNQVVPNNEVSNKINKRVITAIKINAKQAKHNNVNSALGSFVDNTSQANELEVKSTLPIDLLESCRMLHTTCCEFLKHFYIHFQSGEQKQASTVKKLYNHLKDCIEKLNELFQDVLNGDGESMSNTCTAYLKPVLNSITLATHKYDEYFNEYNNNSN
notes: Tfb1 (p62 homologue), subunit of yeast coreTFIIH; Stood in the assays as part of coreTFIIH; also called yeast homologue of p62; source: purified from yeast as a subunit of coreTFIIH
